Positions count from the first letter of the chain named.

To fix the notation:
T1: human Nectin-4 extracellular antigen hNectin-4-His (human, UniProt Q96NY8 32-349)
T1 construct: C-terminal 8xHis tag included
T1 sequence: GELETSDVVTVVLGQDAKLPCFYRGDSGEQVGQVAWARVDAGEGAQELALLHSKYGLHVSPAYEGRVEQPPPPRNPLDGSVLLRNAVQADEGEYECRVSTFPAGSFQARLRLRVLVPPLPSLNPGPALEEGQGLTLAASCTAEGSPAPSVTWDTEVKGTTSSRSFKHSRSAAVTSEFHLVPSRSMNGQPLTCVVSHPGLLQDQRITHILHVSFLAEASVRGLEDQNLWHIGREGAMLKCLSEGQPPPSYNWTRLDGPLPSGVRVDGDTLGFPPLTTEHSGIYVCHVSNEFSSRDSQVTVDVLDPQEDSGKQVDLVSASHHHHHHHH

B1: 1F3-1G5 scFv (scFv, V domains shown)
VH: EVQLVESGGGLVQPGGSLRLSCAASGFSFGSYGMSWVRQAPGKGLEWVSGIKPSTSTTYYADSVKGRFTISRDNSKNTLYLQMNSLRAEDTAVYYCARAELLAFDVYTASDYWGQGTLVTVSS
VL: DIQMTQSPSSLSASVGDRVTITCRASQGISSYLAWYQQKPGKAPKLLIYAASSLQSGVPSRFSGSGSGTDFTLTISSLQPEDFATYYCQQHYTTPPTFGQGTKVEIKR
notes: phage clone supernatant
B2: 1F3-2B2 scFv (scFv, V domains shown)
VH: EVQLVESGGGLVQPGGSLRLSCAASGYNFYSYGMSWVRQAPGKGLEWVSIISPDGGYKRYADSVKGRFTISRDNSKNTLYLQMNSLRAEDTAVYYCARAELLAFDVYTASDYWGQGTLVTVSS
VL: B1 VL
notes: phage clone supernatant
B3: 1F3-2A12 scFv (scFv, V domains shown)
VH: B1 VH with F27Y, G30D, S54T, T55G, S56A, T57S
VL: B1 VL
notes: phage clone supernatant
B4: 1F3-1G7 scFv (scFv, V domains shown)
VH: EVQLVESGGGLVQPGGSLRLSCAASGDIFSNYSMSWVRQAPGKGLEWVSGIYPSGDSRRYADSVKGRFTISRDNSKNTLYLQMNSLRAEDTAVYYCARAELLAFDVYTASDYWGQGTLVTVSS
VL: B1 VL
notes: phage clone supernatant
B5: 1F3-1F4 scFv (scFv, V domains shown)
VH: B4 VH with S30T, N31G, Y32S, P53A, D56S, S57D, R58K
VL: B1 VL
notes: phage clone supernatant
B6: 1F3-1D6 scFv (scFv, V domains shown)
VH: EVQLVESGGGLVQPGGSLRLSCAASGGSFYGFGMSWVRQAPGKGLEWVSGIYSHDADKRYADSVKGRFTISRDNSKNTLYLQMNSLRAEDTAVYYCARAELLAFDVYTASDYWGQGTLVTVSS
VL: B1 VL
notes: phage clone supernatant
B7: 1F3-1H11 scFv (scFv, V domains shown)
VH: B2 VH with Y27F, Y30T, S31D, I50R, P53Q, D54W, G56D, Y57T, K58S, R59N
VL: B1 VL
notes: phage clone supernatant
B8: 1F3-1C4 scFv (scFv, V domains shown)
VH: B1 VH with S28T, S31D, S54W, T55G, T57G
VL: B1 VL
notes: phage clone supernatant
B9: 1F3-1E10 scFv (scFv, V domains shown)
VH: B1 VH with S28N, G30S, G50R, K52S, S54Y, S56D, T57N, T58K
VL: B1 VL
notes: phage clone supernatant
B10: 1F3-1C11 scFv (scFv, V domains shown)
VH: B1 VH with S28N, G30S, G50A, K52S, P53G, T55G, S56G, T57S
VL: B1 VL
notes: phage clone supernatant
B11: 1F3-1D1 scFv (scFv, V domains shown)
VH: B4 VH with S30T, S57N, R58N
VL: B1 VL
notes: phage clone supernatant
B12: 1F3-2B1 scFv (scFv, V domains shown)
VH: B1 VH with F27Y, S28N, G30D, S31N, G33A, S54D, T55S, S56A
VL: B1 VL
notes: phage clone supernatant
B13: 1F3-2A11 scFv (scFv, V domains shown)
VH: B2 VH with Y27D, S31T, Y32F, G33Y, I50G, S52K, D54T, G56S, K58I, R59N
VL: B1 VL
notes: phage clone supernatant
B14: 1F3-1A9 scFv (scFv, V domains shown)
VH: B2 VH with N28S, Y30D, S31N, G33A, I50R, D54T, K58A, R59S
VL: B1 VL
notes: phage clone supernatant
B15: 1F3-1G2 scFv (scFv, V domains shown)
VH: B2 VH with N28T, Y30G, S31D, I50R, S52D, D54W, G56A, Y57S, K58I
VL: B1 VL
notes: phage clone supernatant
B16: 1F3-1D12 scFv (scFv, V domains shown)
VH: B2 VH with Y30T, S31D, I50G, P53G, D54S, G56D, Y57N, R59Y
VL: B1 VL
notes: phage clone supernatant
B17: 1F3-1G11 scFv (scFv, V domains shown)
VH: B1 VH with F27Y, G30T, S31G, K52S, T55G, S56G, T58I, Y59G
VL: B1 VL
notes: phage clone supernatant
B18: 1F3-1E1 scFv (scFv, V domains shown)
VH: B1 VH with G30D, S31D, G33A, G50I, K52Y, S54T, T55G, T58N
VL: B1 VL
notes: phage clone supernatant
B19: 1F3-1E9 scFv (scFv, V domains shown)
VH: B1 VH with S28T, G30D, S31D, G33A, T55S, S56W
VL: B1 VL
notes: phage clone supernatant
B20: 1F3-1F8 scFv (scFv, V domains shown)
VH: B2 VH with Y27F, Y30G, S31N, I50R, P53G, G56S, Y57N, K58I, R59N
VL: B1 VL
notes: phage clone supernatant
B21: 1F3-1E4 scFv (scFv, V domains shown)
VH: B1 VH with S31T, G50R, K52S, P53G, S54D, T55S, S56A, T57N, T58I, Y59R
VL: B1 VL
notes: phage clone supernatant
B22: 1F3-1H3 scFv (scFv, V domains shown)
VH: B1 VH with S28N, G30Y, S31N, S54H, T55S, S56D, T57V, T58A, Y59H
VL: B1 VL
notes: phage clone supernatant
B23: 1F3-1B1 scFv (scFv, V domains shown)
VH: B1 VH with S28T, S31T, S54G, T55D
VL: B1 VL
notes: phage clone supernatant

This assay has as its target T1, human Nectin-4 extracellular antigen …. Description: ELISA, phage scFv supernatant 1:50. Here is the method: The supernatants were diluted 50-fold, and the binding OD values of the diluted supernatants to hNectin-4-His were measured by ELISA. The samples were serially 3-fold diluted, and the EC₅₀ titer for the binding of the supernatants to the antigen was measured by ELISA. […] The light chain variable region sequence is set forth in SEQ ID NO: 25. The OD value is the measurement of ELISA, and the EC₅₀ value denotes the EC₅₀ value of the binding activity titer of the supernatant to the antigen.
(In general: ELISA stands for enzyme-linked immunosorbent assay.)
B1 came in with an OD value of 1.56 OD.

Turning to B2, the OD value amounted to 1.57 OD.

Consider B3, for which the OD value was found to be 1.65 OD.

Turning to B4, the OD value came to 1.56 OD.

For B5, the OD value amounted to 1.42 OD.

In the case of B6, the OD value is 1.44 OD.

As to B7, the OD value was found to be 1.65 OD.

On to B8, for which the OD value is 1.59 OD.

B9 came in with an OD value of 1.54 OD.

Consider B10, for which the OD value was determined as 1.63 OD.

For B11, the OD value was determined as 1.29 OD.

Regarding B12, the OD value was determined as 1.62 OD.

In the case of B13, the OD value was determined as 1.52 OD.

B14 registered an OD value of 1.64 OD.

As for B15, the OD value turned out to be 1.6 OD.

B16 gave an OD value of 1.63 OD.

With B17, the OD value was 1.65 OD.

In turn, B18 returned an OD value of 1.64 OD.

B19 gave an OD value of 1.55 OD.

Take B20: the OD value was determined as 1.67 OD.

B21: the OD value is 1.61 OD.

Molecule B22 had an OD value of 1.73 OD.

Regarding B23, the OD value was found to be 1.65 OD.
